Test results from the supplement of paper PMC10567573.

B1: KLHDC10 (parent)
chain: PSLLELAWEKLLAAFPNLANLSRT
B2: RHOBTB3 (parent)
chain: VSHVFMLLFNVKSPTDIQDSSIIR

Variants of: B1
Test: protein stability index of a GFP-peptide fusion (GPS, HEK-293T) (PSI 1-6); higher = more stable
Conditions: c terminus: a fixed tail appended
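Also: lentivirally expressed fusions sorted by FACS into six bins by GFP to DsRed ratio, PSI derived from sequencing read proportions per bin multiplied by bin number.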

Variant | protein stability index
PSLLELAWEKLLAAFPNLAWLSRT | 2.04
PSLLELAWEKLLAAFPNLAGLSRT | 2.12
PSLLELAWEKLLAAFPNLAALSRT | 2.08
PSLLELAWEKLLAAFPNLAMLSRT | 3.12
PSLLELAWEKLLAAFPNLALLSRT | 1.77
PSLLELAWEKLLAAFPNLAFLSRT | 2.17
PSLLELAWEKLLAAFPNLASLSRT | 2.59
PSLLELAWEKLLAAFQNLANLSRT | 2.12
PSLLELAWEKLLAAFLNLANLSRT | 1.78
PSLLELAWEKLLAAFWNLANLSRT | 2.35
PSLLELAWEKLLAAFMNLANLSRT | 2.62
PSLLELAWEKLLAAFTNLANLSRT | 2.01
PSLLELAWWKLLAAFPNLANLSRT | 1.14
PSLLELAWIKLLAAFPNLANLSRT | 2.07
PSLLELAWSKLLAAFPNLANLSRT | 2.35
PSLLELAWPKLLAAFPNLANLSRT | 2
PSLLELAWKKLLAAFPNLANLSRT | 1.97
PSLLELAWDKLLAAFPNLANLSRT | 2.22
PFLLELAWEKLLAAFPNLANLSRT | 2.41
PQLLELAWEKLLAAFPNLANLSRT | 1.79
PSLLELAWEKLLAAFPNLANLSYT | 1.67
PSLLELAWEKLLAAFPNLANLSFT | 1.96
PSLLELAWEKLLAAFPNLANLSQT | 2.1

Variant | protein stability index
PSLLELAWEKLLAAFPNLANLSHT | 2.02
PSLLELAWEKLLAAAPNLANLSRT | 2.23
PSLLELAWEKLLAAIPNLANLSRT | 1.39
PSLLELAWEKLLAANPNLANLSRT | 2.31
PSLLELAWEKLLAAVPNLANLSRT | 2.38
PSLLELAWEKLLAALPNLANLSRT | 2.16
PSLLELAWEKLLAADPNLANLSRT | 2.3
PSLLELAWEKLLAACPNLANLSRT | 1.78
PSLHELAWEKLLAAFPNLANLSRT | 2.88
PSLYELAWEKLLAAFPNLANLSRT | 2.06
PSLMELAWEKLLAAFPNLANLSRT | 2.47
PSLAELAWEKLLAAFPNLANLSRT | 3.11
PSLRELAWEKLLAAFPNLANLSRT | 3.93
PSLPELAWEKLLAAFPNLANLSRT | 1.83
PSLQELAWEKLLAAFPNLANLSRT | 3.05
PSLNELAWEKLLAAFPNLANLSRT | 2.83
ISLLELAWEKLLAAFPNLANLSRT | 1.92
LSLLELAWEKLLAAFPNLANLSRT | 2.23
KSLLELAWEKLLAAFPNLANLSRT | 2.79
PSLLELAWEKLLAAFPNLANLSRE | 2.22
PSLLELAWEKLLAAFPNLANLSRC | 1.6
PSLLELAWEKLLAAFPNLANLSRM | 2.17
PSLLELAWEKLLAAFPNLANLSRS | 2.14

Variant | protein stability index
PSLLELAWEKLLAAFPNLANLSRF | 2.06
PSLLELAWEKLLAAFPNLANLSRP | 2.44
PSLLELAWEKLLAAFPNLANLSRL | 1.85
PSLLELAWEKLLAAFPNLANLSRR | 2.6
PSLLELAWEKLLAAFPNLANLSRW | 2.28
PSLLALAWEKLLAAFPNLANLSRT | 2.28
PSLLGLAWEKLLAAFPNLANLSRT | 2.42
PSLLSLAWEKLLAAFPNLANLSRT | 3.15
PSLLVLAWEKLLAAFPNLANLSRT | 1.71
PSLLTLAWEKLLAAFPNLANLSRT | 2.31
PSLLPLAWEKLLAAFPNLANLSRT | 1.34
PSLLELAWEILLAAFPNLANLSRT | 1.7
PSLLELAWEQLLAAFPNLANLSRT | 1.95
PSLLELAWEELLAAFPNLANLSRT | 1.57
PSLLELAWECLLAAFPNLANLSRT | 1.63
PSLLELAWEGLLAAFPNLANLSRT | 1.93
PSLLELAWEFLLAAFPNLANLSRT | 2.25
PSLLELAWENLLAAFPNLANLSRT | 1.48
PSLLELAWEPLLAAFPNLANLSRT | 1.64
PSLLELACEKLLAAFPNLANLSRT | 1.85
PSLLELASEKLLAAFPNLANLSRT | 2.24
PSLLELAPEKLLAAFPNLANLSRT | 3.21
PSLLELAREKLLAAFPNLANLSRT | 2.52

Variant | protein stability index
PSLLELAWEKLLAAFPNLANESRT | 1.82
PSLLELAWEKLLAAFPNLANDSRT | 2.33
PSLLELAWEKLLAAFPNLANVSRT | 2.35
PSLLELAWEKLLAAFPNLANNSRT | 2.52
PSLLELAWEKLLAAFPNLANISRT | 1.76
PSLLELAWEKLLAAFPNLANTSRT | 2.6
PSLLEDAWEKLLAAFPNLANLSRT | 2.2
PSLLEYAWEKLLAAFPNLANLSRT | 1.95
PSLLENAWEKLLAAFPNLANLSRT | 2.09
PSLLEIAWEKLLAAFPNLANLSRT | 2.06
PSLLEVAWEKLLAAFPNLANLSRT | 2.33
PSLLEMAWEKLLAAFPNLANLSRT | 2.47
PSLLEPAWEKLLAAFPNLANLSRT | 1.86
PSILELAWEKLLAAFPNLANLSRT | 1.56
PSYLELAWEKLLAAFPNLANLSRT | 1.86
PSPLELAWEKLLAAFPNLANLSRT | 1.72
PSCLELAWEKLLAAFPNLANLSRT | 1.85
PSRLELAWEKLLAAFPNLANLSRT | 2.06
PSWLELAWEKLLAAFPNLANLSRT | 1.9
PSFLELAWEKLLAAFPNLANLSRT | 2.22
PSLLELAWEKFLAAFPNLANLSRT | 2.29
PSLLELAWEKILAAFPNLANLSRT | 2.23
PSLLELAWEKSLAAFPNLANLSRT | 2.2

Variant | protein stability index
PSLLELAWEKPLAAFPNLANLSRT | 2.39
PSLLELAWEKLVAAFPNLANLSRT | 2.44
PSLLELAWEKLNAAFPNLANLSRT | 2.32
PSLLELAWEKLYAAFPNLANLSRT | 1.76
PSLLELAWEKLDAAFPNLANLSRT | 3.04
PSLLELAWEKLSAAFPNLANLSRT | 1.9
PSLLELAWEKLEAAFPNLANLSRT | 2.66
PSLLELAWEKLRAAFPNLANLSRT | 1.88
PSLLELAWEKLIAAFPNLANLSRT | 2.12
PSLLELAWEKLMAAFPNLANLSRT | 1.85
PSLLELVWEKLLAAFPNLANLSRT | 2.22
PSLLELGWEKLLAAFPNLANLSRT | 1.96
PSLLELWWEKLLAAFPNLANLSRT | 1.84
PSLLELRWEKLLAAFPNLANLSRT | 2.35
PSLLELAWEKLLLAFPNLANLSRT | 1.74
PSLLELAWEKLLFAFPNLANLSRT | 1.46
PSLLELAWEKLLWAFPNLANLSRT | 1.64
PSLLELAWEKLLPAFPNLANLSRT | 1.86
PSLLELAWEKLLAAFPNVANLSRT | 1.81
PSLLELAWEKLLAAFPNNANLSRT | 2.97
PSLLELAWEKLLAAFPNPANLSRT | 2.15
PSLLELAWEKLLAAFPNIANLSRT | 2.08
PSLLELAWEKLLAAFPNWANLSRT | 1.82

Variant | protein stability index
PSLLELAWEKLLAAFPNHANLSRT | 1.84
PSLLELAWEKLLADFPNLANLSRT | 2.19
PSLLELAWEKLLACFPNLANLSRT | 2.58
PSLLELAWEKLLARFPNLANLSRT | 1.87
PSLLELAWEKLLAAFPNLANLYRT | 1.81
PSLLELAWEKLLAAFPNLANLQRT | 2.38
PSLLELAWEKLLAAFPNLANLFRT | 2.46
PSLLELAWEKLLAAFPNLANLIRT | 2.28
PSLLELAWEKLLAAFPNLANLMRT | 2.02
PSLLELAWEKLLAAFPNLANLKRT | 2.57
PSLLELAWEKLLAAFPNLTNLSRT | 1.77
PSLLELAWEKLLAAFPNLHNLSRT | 1.93
PSLLELAWEKLLAAFPNLYNLSRT | 2.02
PSLLELAWEKLLAAFPNLFNLSRT | 2
PSLLELAWEKLLAAFPNLDNLSRT | 2.46
PSLLELAWEKLLAAFPPLANLSRT | 1.97
PSLLELAWEKLLAAFPQLANLSRT | 1.94
PSLLELAWEKLLAAFPCLANLSRT | 1.81
PSLLELAWEKLLAAFPWLANLSRT | 2.94
PSLLELAWEKLLAAFPSLANLSRT | 2.29
PSLLELAWEKLLAAFPRLANLSRT | 2.09
PSLLELAWEKLLAAFPTLANLSRT | 1.8
PSLLELAWEKLLAAFPLLANLSRT | 2.15

Variants of: B2
Test: as above
Conditions: c terminus: a fixed tail appended

Variant | protein stability index
VSHVFMLLFNVKSPTDIQDSSIPR | 1.33
VSHVFMLLFNVKSPTDIQDSSIAR | 4.9
VSHVFMLLFNVKSPTDIQDSSIDR | 2.83
VSHVFMLLFNVKSPTDIQDSSISR | 2.33
VSHVFMLLFNVKSPTDIQDSSINR | 4.01
VSHVFMLLFNVKSPTDIQDSSITR | 2.43
VSHVFMLLFNVKSPTDIQDSSIER | 1.89
VSHVFMLLFNVKSPTDIQDSSIKR | 1.4
VSHVFMLLFNVKSPTDIQDSSIGR | 2.5
VSHVFMLLFNVKSPTDIQDSSIYR | 3.9
VSHVFMLLFNVKSPTDIQDSSIHR | 2.28
VSHVFMLLFNVKSPTDIQDSSIVR | 2.75
VSHVFMLLFNVKSPTDIQDSSIMR | 4.19
VSHVFMLLFNVKSPTDIQDSSILR | 5.03
VSHVFMLLFNVKSPTDIQDSSIWR | 2.86
VSHVFMLLFNVKSPTDIQDSSIRR | 2.85
VSHVFMLLFNVKSPTDIQDSSIQR | 2.79
VSHVFMLLFNVKSPTDIQDSSIFR | 4.66
VSHVFMLLFNVKSPTDIQDSSPIR | 3.69
VSHVFMLLFNVKSPTDIQDSSLIR | 2.98
VSHVFMLLFNVKSPTDIQDSSTIR | 2.35
VSHVFMLLFNVKSPTDIQDSSNIR | 1.66
VSHVFMLLFNVKSPTDIQDSSWIR | 2.17
VSHVFMLLFNVKSPTDIQDSSQIR | 2.63
VSHVFMLLFNVKSPTDIQDSSVIR | 3.37

Variant | protein stability index
VSHVFMLLFNVKSPTDIQDSSRIR | 1.6
VSHVFMLLFNVKSPTDIQDSSYIR | 2.62
VSHVFMLLFNVKSPTDIQDSSCIR | 2.08
VSHVFMLLFNVKSPTDIQDSSFIR | 2.15
VSHVFMLLFNVKSPTDIQDSSDIR | 2.8
VSHVFMLLFNVKSPTDIQDSVIIR | 2.27
VSHVFMLLFNVKSPTDIQDSWIIR | 3.54
VSHVFMLLFNVKSPTDIQDSMIIR | 2.9
VSHVFMLLFNVKSPTDIQDSYIIR | 3.45
VSHVFMLLFNVKSPTDIQDSKIIR | 1.84
VSHVFMLLFNVKSPTDIQDSQIIR | 4.13
VSHVFMLLFNVKSPTDIQDSTIIR | 3.42
VSHVFMLLFNVKSPTDIQDSSIIY | 2.58
VSHVFMLLFNVKSPTDIQDSSIIT | 3.31
VSHVFMLLFNVKSPTDIQDSSIIW | 4.43
VSHVFMLLFNVKSPTDIQDSSIIG | 3.07
VSHVFMLLFNVKSPTDIQDSSIIK | 3.56
VSHVFMLLFNVKSPTDIQDSSIIL | 2.66
VSHVFMLLFNVKSPTDIQDSSIIS | 3.05
VSHVFMLLFNVKSPTDIQDSSIIQ | 4.67
VSHVFMLLFNVKSPTDIQDSSIIE | 2.74
VSHVFMLLFNVKSPTDIQDSSIIH | 3.13
VSHVFMLLFNVKSPTDIQDSSIIN | 3.13
VSHVFMLLFNVKSPTDIQDSSIIV | 3.67
VSHVFMLLFNVKSPTDIQDSSIIF | 1.82
